Laboratory results taken from article PMC5669925, “Tumor-expressed immune checkpoint B7x promotes cancer progression and antigen-specific CD8 T cell exhaustion and suppressive innate immune cells” (Oncotarget, 2017).
Blank lines part the entries; values can stand above or below the molecule they belong to.

Legend:
[1] = target: PD-1 on labeled cells (intercellular conjugate assay) (UniProt Q15116); experiment: intercellular conjugate assay; two cell populations labeled with CFSE or Violet Cell Trace, 2 x 10^5 of each mixed in FACS buffer, 45 minutes at 37 degrees Celsius; co-localization read by FACS
Chain of PD-1 on labeled cells (intercellular conjugate assay) (Q15116 25-288): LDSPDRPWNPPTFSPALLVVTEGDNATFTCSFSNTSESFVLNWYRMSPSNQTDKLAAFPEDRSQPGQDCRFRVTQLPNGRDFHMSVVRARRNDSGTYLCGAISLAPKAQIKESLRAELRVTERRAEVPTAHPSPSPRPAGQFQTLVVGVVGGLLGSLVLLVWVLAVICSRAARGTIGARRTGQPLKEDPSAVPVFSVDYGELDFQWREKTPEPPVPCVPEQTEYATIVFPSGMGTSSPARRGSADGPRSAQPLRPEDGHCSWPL

[2] = target: T1, Recombinant human NRP1 (R&D) (human, UniProt O14786 22-856); experiment: BLI; BLItz system (ForteBio); human IgG fusion protein (25 ug/mL, 2 min) captured on anti-human IgG Fc capture sensors; protein analytes in 1x Kinetic Buffer (ForteBio); conditions: both partners purified
T1 construct: Neuropilin-1 (NRP1), human; Soluble analyte in BLI; no catalogue number or tag is printed; also called Rh-NRP1; source: bought: R&D systems
T1 sequence (looked up): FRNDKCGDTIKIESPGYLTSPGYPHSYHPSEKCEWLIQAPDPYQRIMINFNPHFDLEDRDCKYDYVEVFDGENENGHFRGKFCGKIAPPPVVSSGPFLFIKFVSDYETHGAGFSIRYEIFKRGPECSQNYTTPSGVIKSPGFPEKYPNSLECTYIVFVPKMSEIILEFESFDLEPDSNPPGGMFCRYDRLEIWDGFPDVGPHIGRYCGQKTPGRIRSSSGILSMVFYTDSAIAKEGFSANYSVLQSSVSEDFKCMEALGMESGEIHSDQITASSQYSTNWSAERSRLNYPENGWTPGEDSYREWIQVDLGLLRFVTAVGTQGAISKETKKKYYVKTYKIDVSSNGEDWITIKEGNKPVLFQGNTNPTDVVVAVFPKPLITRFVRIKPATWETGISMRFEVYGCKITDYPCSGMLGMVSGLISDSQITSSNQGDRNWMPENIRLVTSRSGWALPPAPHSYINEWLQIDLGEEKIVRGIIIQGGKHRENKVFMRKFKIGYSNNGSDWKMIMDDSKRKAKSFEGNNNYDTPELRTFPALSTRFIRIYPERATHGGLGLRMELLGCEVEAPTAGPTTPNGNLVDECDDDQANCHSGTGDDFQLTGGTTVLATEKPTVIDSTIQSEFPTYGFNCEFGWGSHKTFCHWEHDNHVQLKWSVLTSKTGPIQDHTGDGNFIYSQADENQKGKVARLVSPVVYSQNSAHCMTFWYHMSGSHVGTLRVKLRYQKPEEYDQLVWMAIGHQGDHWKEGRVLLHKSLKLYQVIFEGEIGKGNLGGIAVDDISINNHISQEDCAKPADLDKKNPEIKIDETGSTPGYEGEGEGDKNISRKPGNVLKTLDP

percent co-localization [1]: 24%
Molecule: PD-L2 on labeled cells (intercellular conjugate assay) (from UniProt Q9BQ51 20-273) (ligand)

percent co-localization [1]: 18%
Molecule: PD-L1 on labeled cells (intercellular conjugate assay) (from UniProt Q9NZQ7 19-290) (ligand)

binding result [2]: binds
B1: Human Sema3a-hIgG1 (R&D) (Fc fusion, UniProt Q14563 21-771, looked up)
chain: NYQNGKNNVPRLKLSYKEMLESNNVITFNGLANSSSYHTFLLDEERSRLYVGAKDHIFSFDLVNIKDFQKIVWPVSYTRRDECKWAGKDILKECANFIKVLKAYNQTHLYACGTGAFHPICTYIEIGHHPEDNIFKLENSHFENGRGKSPYDPKLLTASLLIDGELYSGTAADFMGRDFAIFRTLGHHHPIRTEQHDSRWLNDPKFISAHLISESDNPEDDKVYFFFRENAIDGEHSGKATHARIGQICKNDFGGHRSLVNKWTTFLKARLICSVPGPNGIDTHFDELQDVFLMNFKDPKNPVVYGVFTTSSNIFKGSAVCMYSMSDVRRVFLGPYAHRDGPNYQWVPYQGRVPYPRPGTCPSKTFGGFDSTKDLPDDVITFARSHPAMYNPVFPMNNRPIVIKTDVNYQFTQIVVDRVDAEDGQYDVMFIGTDVGTVLKVVSIPKETWYDLEEVLLEEMTVFREPTAISAMELSTKQQQLYIGSTAGVAQLPLHRCDIYGKACAECCLARDPYCAWDGSACSRYFPTAKRRTRRQDIRNGDPLTHCSDLHHDNHHGHSPEERIIYGVENSSTFLECSPKSQRALVYWQFQRRNEERKEEIRVDDHIIRTDQGLLLRSLQQKDSGNYLCHAVEHGFIQTLLKVTLEVIDTEHLEELLHKDDDGDGSKTKEMSNSMTPSQKVWYRDFMQLINHPNLNTMDEFCEQVWKRDRKQRRQRPGHTPGNSNKWKHLQENKKGRNRRTHEFERAPRSV
notes: Semaphorin 3a (Sema3a), human; Commercial Fc fusion; no catalogue number; also called Sema3a-Ig; Semaphorin3a-hIgG1; source: bought: R&D systems
